The target in experiment [1] is T1, unlabeled recombinant TBK1 (UniProt Q9UHD2 1-729).
T1 sequence (looked up): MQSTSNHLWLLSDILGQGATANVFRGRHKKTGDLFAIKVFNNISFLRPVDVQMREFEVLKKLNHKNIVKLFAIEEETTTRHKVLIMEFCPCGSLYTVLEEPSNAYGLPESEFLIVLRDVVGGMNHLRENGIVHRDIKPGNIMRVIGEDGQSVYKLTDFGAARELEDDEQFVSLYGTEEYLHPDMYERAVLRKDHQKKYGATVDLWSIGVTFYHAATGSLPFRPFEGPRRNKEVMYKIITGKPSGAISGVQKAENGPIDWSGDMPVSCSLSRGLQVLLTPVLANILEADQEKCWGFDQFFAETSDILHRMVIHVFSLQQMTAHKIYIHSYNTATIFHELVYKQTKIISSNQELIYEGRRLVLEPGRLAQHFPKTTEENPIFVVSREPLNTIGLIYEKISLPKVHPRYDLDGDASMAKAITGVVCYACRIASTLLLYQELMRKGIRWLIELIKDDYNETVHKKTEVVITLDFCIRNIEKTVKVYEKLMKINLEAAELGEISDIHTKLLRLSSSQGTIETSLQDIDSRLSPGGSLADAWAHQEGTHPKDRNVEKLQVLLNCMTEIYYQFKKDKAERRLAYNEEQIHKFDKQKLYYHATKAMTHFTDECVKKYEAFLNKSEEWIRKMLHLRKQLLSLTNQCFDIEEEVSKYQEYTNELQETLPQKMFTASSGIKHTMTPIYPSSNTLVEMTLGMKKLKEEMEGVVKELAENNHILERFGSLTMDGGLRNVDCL
In words: other fluorescence titration. The conditions noted are these: both partners purified.

For experiment [2], the target named is T2, unlabeled recombinant p47phox (UniProt P14598 1-390).
T2 sequence (looked up): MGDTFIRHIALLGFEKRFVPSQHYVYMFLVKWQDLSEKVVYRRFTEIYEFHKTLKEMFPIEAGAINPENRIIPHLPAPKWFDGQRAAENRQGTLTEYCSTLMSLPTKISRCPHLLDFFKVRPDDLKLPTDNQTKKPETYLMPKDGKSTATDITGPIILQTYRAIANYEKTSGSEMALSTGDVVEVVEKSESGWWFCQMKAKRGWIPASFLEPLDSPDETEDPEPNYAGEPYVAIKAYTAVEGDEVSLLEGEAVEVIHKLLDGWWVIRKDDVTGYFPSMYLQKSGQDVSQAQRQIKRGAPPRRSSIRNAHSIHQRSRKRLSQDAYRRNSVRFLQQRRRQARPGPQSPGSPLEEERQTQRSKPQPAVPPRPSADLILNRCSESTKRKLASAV
In words: other fluorescence titration. As to conditions: both partners purified.

In experiment [3] the test system is murine peritoneal macrophages. The conditions noted are these: TNF-α and IL-6 secretion, ref [9]; cited from earlier work.
The test system of a further experiment is macrophages. The conditions noted are these: conformational switch dependent on the pH of the host; ref [8]; cited from earlier work.
For experiment [4], the system named is p47phox. The experiment is classed as binding.
Experiment [5] addresses T3, TBK1 (Homo sapiens, UniProt Q9UHD2).
T3 sequence (Q9UHD2 1-729): T1 sequence (looked up)
The experiment is classed as binding.

For another experiment, the system named is Th1 cell. The conditions noted are these: MPT63 and its epitope; ref [44]; cited from earlier work.
Experiment [6] deals with HLA-DR, an MHC class II cell surface receptor. The conditions noted are these: MPT63 and its epitope; ref [44]; cited from earlier work.
The test system of experiment [7] is p47phox. In words: Endogenous co-immunoprecipitation with p47phox in THP-1 cells. As to conditions: rMPT63 5 μg mL^−1, IP with αHis-agarose bead. The experiment is classed as binding, human. As to the method:
(§1) Figure 1 TBK1 and p47phox is bound with MPT63. (A) Identification of TBK1 and p47phox by mass spectrometry analysis in THP-1 cell lysates treated with rMPT63 or rVector. (B) THP-1 cells were stimulated with rMPT63 (5 μg mL^−1) for the indicated times, followed by immunoprecipitation (IP) with αHis-agarose bead and IB with αTBK1, αP-TBK1 (S172), αp47phox, αP-p47phox (S304, 345, 359, and 370), αHis, αActin. […] (E,G) Binding mapping. Schematic diagrams of the structures of MPT63 (upper). At 48 h after transfection with mammalian glutathione S-transferase (GST) or GST-MPT63 and truncated mutant constructs together with Flag-TBK1 or V5-p47phox. 293T cells were used for GST pull down, followed by IB with αFlag or αV5. Cell lysates (WCLs) were used for IB with αFlag or αV5, αGST, and αActin. […]
(§2) Antibody binding was visualized by chemiluminescence (ECL; Millipore) and detected by a Vilber chemiluminescence analyzer (Fusion SL 3; Vilber Lourmat).
(§3) Confocal fluorescence microscopy
(§4) Immunofluorescence analysis was performed as described previously (Koh et al, 2017). […] TRAF6 or His was detected using a 1/100 dilution of the primary Ab for 1 h at 25 °C. […]
(§5) Cell viability relative to non-treated group was measured by MTT assay, as […]

Experiment [8] deals with TBK1. Kind of experiment: Endogenous co-immunoprecipitation with TBK1 in THP-1 cells. In kind it is binding, human. The conditions noted are these: 5 μg mL^−1, IP with αHis-agarose bead. As to the method:
as §1, §2, §3, §4, §5

The test system of experiment [9] is host proteins in THP-1 macrophage cell lysates. In words: Co-immunoprecipitation from THP-1 cell lysates with mass spectrometry identification of binding partners. The arrangement: species or system human.
In experiment [10] the target is T4, unlabeled recombinant HK2 (UniProt P52789 1-917).
T4 sequence (looked up): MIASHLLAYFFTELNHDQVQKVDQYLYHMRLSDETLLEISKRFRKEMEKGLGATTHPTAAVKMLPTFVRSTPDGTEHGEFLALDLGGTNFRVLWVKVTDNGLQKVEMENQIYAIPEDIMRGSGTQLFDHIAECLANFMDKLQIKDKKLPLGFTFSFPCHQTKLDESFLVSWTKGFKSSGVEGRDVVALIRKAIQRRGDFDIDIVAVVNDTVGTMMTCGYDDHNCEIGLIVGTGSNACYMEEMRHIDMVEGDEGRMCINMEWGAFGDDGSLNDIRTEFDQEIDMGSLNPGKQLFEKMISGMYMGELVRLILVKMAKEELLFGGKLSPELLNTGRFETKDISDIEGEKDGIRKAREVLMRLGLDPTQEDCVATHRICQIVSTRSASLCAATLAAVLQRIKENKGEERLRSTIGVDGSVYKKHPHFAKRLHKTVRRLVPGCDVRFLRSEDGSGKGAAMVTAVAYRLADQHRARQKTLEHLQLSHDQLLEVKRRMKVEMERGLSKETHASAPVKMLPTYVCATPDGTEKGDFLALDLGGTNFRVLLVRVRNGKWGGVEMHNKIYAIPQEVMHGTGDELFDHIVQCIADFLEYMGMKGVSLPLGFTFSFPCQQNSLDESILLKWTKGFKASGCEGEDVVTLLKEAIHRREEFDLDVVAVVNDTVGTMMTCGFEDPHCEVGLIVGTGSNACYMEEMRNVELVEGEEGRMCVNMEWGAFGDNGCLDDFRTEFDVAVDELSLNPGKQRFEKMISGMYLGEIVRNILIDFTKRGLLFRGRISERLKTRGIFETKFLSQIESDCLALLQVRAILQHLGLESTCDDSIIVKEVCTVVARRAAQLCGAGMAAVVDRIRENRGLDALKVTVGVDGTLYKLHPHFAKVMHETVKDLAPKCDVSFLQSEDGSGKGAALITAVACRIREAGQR
Kind of experiment: other fluorescence titration. As to conditions: both partners purified.

B1: fluorescently labelled MPT63 (natural protein)
chain: AYPITGKLGSELTMTDTVGQVVLGWKVSDLKSSTAVIPGYPVAGQVWEATATVNAIRGSVTPAVSQFNARTADGINYRVLWQAAGPDTISGATIPQGEQSTGKIYFDVTGPSPTIVAMNNGMEDLLIWEP
What is called Kd is the equilibrium constant for the complex coming apart. In the case of B1, the figures for the Kd in experiment [1] and in [2] were 0.178 µM and 0.345 µM, respectively.

B2: MPT63: secretory immunodominant antigen of MTB (protein)
chain: B1 chain
Regarding B2, in experiment [3], the phagocytic activity result was “enhanced the phagocytic activity by upregulating the secretion of TNF-α and IL-6”. Further, the macrophage cell death result with macrophages was “induced cell death of macrophages”. The “region of MPT63 binding p47phox” value in the experiment on p47phox [4] is “The C-terminal of MPT63 was associated with p47phox, particularly the 150–159 amino acids in the C-terminal domain of MPT63 were important for binding with p47phox. Additionally, E152, D153, and E158 in MPT63 were key amino acids”. Further, the “region of MPT protein binding TBK1” value with TBK1 [5] was “the N-terminal of MPT63 bound with TBK1 and 48–56 peptide was essential for the interaction between MPT63 and TBK1. Specifically, 50–56 amino acids, except G53, seemed to be fundamental for binding”. Moreover, the Th1 cell reactivity result with Th1 cell is “induce a moderate Th1 cell reactivity”. Further, the “binding to HLA-DR” value in experiment [6] is “bind promiscuously to HLA-DR”.

B3: rMPT63: recombinant MPT63, purified using a 6x His bacterially expressed system (protein)
chain: B1 chain
For the molecule B3, in the experiment on p47phox [7], the “endogenous interaction with p47phox and phosphorylated forms” value was “interacted with TBK1 and p47phox and, interestingly, with their phosphorylated forms as well (S345 and S359)”. The “endogenous interaction with TBK1 and phosphorylated form” value in the experiment with TBK1 [8] was “interacted with TBK1 and p47phox and, interestingly, with their phosphorylated forms as well”. For the same molecule, the “binding partners identified by mass spectrometry” value in experiment [9] was “included TANK-binding kinase (TBK1, 83K), receptor-interacting serine/threonine-protein kinase 1 (RIP1, 75K), RAC-alpha serine/threonine-protein kinase (AKT, 55K), Neutrophil cytosol factor 1 (p47phox, 45K), and p38 mitogen-activated protein kinase (p38MAPK, 38K)”.

B4: fluorescently labelled MPT64 (natural protein)
chain: APKTYCEELKGTDTGQACQIQMSDPAYNINISLPSYYPDQKSLENYIAQTRDKFLSAATSSTPREAPYELNITSATYQSAIPPRGTQAVVLKVYQNAGGTHPTTTYKAFDWDQAYRKPITYDTLWQADTDPLPVVFPIVQGELSKQTGQQVSIAPNAGLDPVNYQNFAVTNDGVIFFFNPGELLPEAAGPTQVLVPRSAIDSMLA
Turning to B4, the Kd in experiment [10] was 0.134 µM; in [1] it was 0.193 µM.

B5: rMPT64: recombinant MPT64, produced in a bacterially expressed system as MPT63 (protein)
chain: B4 chain
Consider B5, for which the “endogenous interaction with TBK1 and phosphorylated form” value in the experiment with TBK1 [8] was “phosphorylated TBK1 (S172) also interacted with rMPT64”. Further, the “binding partners identified by mass spectrometry” value in experiment [9] is “interacted with several host proteins, including hexokinase 2 (HK2, 102K), TBK1 (83K), protein kinase Cα (PKCα, 76K), TNF receptor associated factor 6 (TRAF6, 60K), and p38MAPK (38K)”.

Values taken from article PMC8152475 (Biomedicines, 2021).
